The record followed here is the supplement of paper PMC10567573.

To fix the notation:
B1: SAT2 (parent)
chain: LTEAEGWHFFCFQGEATRKLAGK
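Also: lentivirally expressed fusions sorted by FACS into six bins by GFP to DsRed ratio, PSI derived from sequencing read proportions per bin multiplied by bin number.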

The variants in this data set derive from B1. Kind of data set: protein stability index of a GFP-peptide fusion (GPS, HEK-293T) (PSI 1-6); higher = more stable. Particulars: c terminus: native.
Take LTEAEGWHFFCFQGEATRKLPGK [A21P]: the protein stability index is 1.99.
With LTEAEGWHFFCFQGEATRKLHGK [A21H], the protein stability index is 3.24.
Consider LTEAEGWHFFCFQGEATRKLFGK [A21F], for which the protein stability index is 1.77.
Regarding LTEAEGWHFFCFQGEATRKLDGK [A21D], the protein stability index worked out at 2.73.
As for LTEAEGWHFFCFQGEATRKLQGK [A21Q], the figure is 3.17.
The figure for LTEAEGWHFFCFQGEATRKLIGK [A21I] is 3.52.
As for LTEAEGWHFFCFQGEATRKLLGK [A21L], the figure is 1.33; as for LTEAEGWHFFCFQGEATRKLKGK [A21K], 2.5; as for LTEAEGWHFFCFQGEATRKLTGK [A21T], 2.71.
LTEAEGWHFFCFQGEATRKLWGK [A21W]: the protein stability index was 2.34.
As for LTEAEGWHFFCFQGEATRKLCGK [A21C], the figure is 2.57; as for LTEAEGWHFFCFQGEATRKLNGK [A21N], 2.55; as for LTEAEGWHFFCFQGEATRKLEGK [A21E], 2.25.
For LTEAEGWHFFCFQGEATRKLSGK [A21S], the protein stability index worked out at 2.16.
Turning to LTEAEGWHFFCFQGEATRKLMGK [A21M], the protein stability index amounted to 1.91.
As for LTEAEGWHFFCFQGEATRKLRGK [A21R], the figure is 1.71; as for LTEAEGWHFFCFQGEATRKLYGK [A21Y], 2; as for LTEAEGWHFFCFQGYATRKLAGK [E15Y], 2.69.
As for LTEAEGWHFFCFQGEATNKLAGK [R18N], the figure is 2.59; as for LTEAEGWHFFCFQGEATPKLAGK [R18P], 2.58.
In the case of LTEAEGWHFFCFQGEATGKLAGK [R18G], the protein stability index is 2.07.
As to LTEAEGWHFFCFQGEATMKLAGK [R18M], the protein stability index was 1.71.
LTEAEGWHFFCFQGEATIKLAGK [R18I]: the protein stability index came to 3.84.
LTEAEGWHFFCFQGEATKKLAGK [R18K]: the protein stability index was 2.8.
With LTEAEGWHFFCFQGEATCKLAGK [R18C], the protein stability index came out at 1.92.
With LTEAEGWHFFCFQGEATAKLAGK [R18A], the protein stability index is 2.09.
In the case of LTEAEGWHFFCFQGEATTKLAGK [R18T], the protein stability index was found to be 2.03.
As for LTEAEGWHFFCFQGEATFKLAGK [R18F], the figure is 1.5; as for LTEAEGWHFFCFQGEATYKLAGK [R18Y], 2.21.
As to LTEAEGWHFFCFQGEATHKLAGK [R18H], the protein stability index amounted to 2.3.
LTEAEGWHFFCFQGEATVKLAGK [R18V]: the protein stability index stood at 1.5.
The figure for LTEAEGWHFFCFQGEATQKLAGK [R18Q] is 1.87; for LTEAEGWHFFCFQGEATDKLAGK [R18D] it is 3.15; for LTEAEGWHFFCFQGEATLKLAGK [R18L] it is 1.53.
The figure for LTEAEGWHFFCFQGEITRKLAGK [A16I] is 1.64.
On to LTEAEGWHFFCFQGEMTRKLAGK [A16M], for which the protein stability index was 2.1.
Take LTEAEGWHFFCFQGETTRKLAGK [A16T]: the protein stability index came out at 1.68.
As for LTEAEGWHFFCFQGESTRKLAGK [A16S], the figure is 2.12; as for LTEAEGWHFFCFQGEDTRKLAGK [A16D], 3.16; as for LTEAEGWHFFCFQGEYTRKLAGK [A16Y], 2.03.
LTEAEGWHFFCFQGEPTRKLAGK [A16P]: the protein stability index worked out at 2.33.
The figure for LTEAEGWHFFCFQGECTRKLAGK [A16C] is 2.46; for LTEAEGWHFFCFQGEFTRKLAGK [A16F] it is 1.59.
As for LTEAEGWHFFCFQGEVTRKLAGK [A16V], the figure is 2.3; as for LTEAEGWHFFCFQGEGTRKLAGK [A16G], 2.38.
Regarding LTEAEGWHFFCFQGEWTRKLAGK [A16W], the protein stability index worked out at 1.08.
The figure for LTEAEGWHFFCFQGERTRKLAGK [A16R] is 1.98.
As to LTEAEGWHFFCFQGELTRKLAGK [A16L], the protein stability index was 3.02.
On to LTEAEGWHFFCFQGEETRKLAGK [A16E], for which the protein stability index was found to be 2.79.
As for LTEAEGWHFFCFQGEHTRKLAGK [A16H], the figure is 2.63; as for LTEAEGWHFFCFQGENTRKLAGK [A16N], 2.67; as for LTEAEGWHFFCFQGEQTRKLAGK [A16Q], 2.58.
In the case of LTEAEGWHFFCFQGEASRKLAGK [T17S], the protein stability index was found to be 1.48.
LTEAEGWHFFCFQGEAIRKLAGK [T17I]: the protein stability index stood at 1.35.
The figure for LTEAEGWHFFCFQGEAVRKLAGK [T17V] is 2.21; for LTEAEGWHFFCFQGEALRKLAGK [T17L] it is 2.04; for LTEAEGWHFFCFQGEAYRKLAGK [T17Y] it is 2.01.
The figure for LTEAEGWHFFCFQGEAERKLAGK [T17E] is 2.7; for LTEAEGWHFFCFQGEANRKLAGK [T17N] it is 2.53; for LTEAEGWHFFCFQGEAMRKLAGK [T17M] it is 2.46.
With LTEAEGWHFFCFQGEACRKLAGK [T17C], the protein stability index turned out to be 1.8.
The figure for LTEAEGWHFFCFQGEAQRKLAGK [T17Q] is 2.63; for LTEAEGWHFFCFQGEAGRKLAGK [T17G] it is 2.15; for LTEAEGWHFFCFQGEARRKLAGK [T17R] it is 2.26.
On to LTEAEGWHFFCFQGEADRKLAGK [T17D], for which the protein stability index worked out at 2.79.
As for LTEAEGWHFFCFQGEAFRKLAGK [T17F], the figure is 1.61.
Regarding LTEAEGWHFFCFQGEAPRKLAGK [T17P], the protein stability index amounted to 3.05.
In the case of LTEAEGWHFFCFQGEAHRKLAGK [T17H], the protein stability index was 1.77.
As for LTEAEGWHFFCFQGEATRALAGK [K19A], the figure is 2.35.
The figure for LTEAEGWHFFCFQGEATRILAGK [K19I] is 2.39; for LTEAEGWHFFCFQGEATRQLAGK [K19Q] it is 1.69; for LTEAEGWHFFCFQGEATRFLAGK [K19F] it is 1.94.
For the variant LTEAEGWHFFCFQGEATRYLAGK [K19Y], the protein stability index was determined as 2.11.
As for LTEAEGWHFFCFQGEATRGLAGK [K19G], the figure is 2.25; as for LTEAEGWHFFCFQGEATRPLAGK [K19P], 2.1.
For LTEAEGWHFFCFQGEATRNLAGK [K19N], the protein stability index was 2.93.
The figure for LTEAEGWHFFCFQGEATRLLAGK [K19L] is 2.93; for LTEAEGWHFFCFQGEATRRLAGK [K19R] it is 2.23.
As for LTEAEGWHFFCFQGEATRWLAGK [K19W], the protein stability index worked out at 2.
As to LTEAEGWHFFCFQGEATRHLAGK [K19H], the protein stability index was determined as 2.58.
As to LTEAEGWHFFCFQGEATRMLAGK [K19M], the protein stability index is 1.89.
As for LTEAEGWHFFCFQGEATRTLAGK [K19T], the figure is 2.05; as for LTEAEGWHFFCFQGEATRCLAGK [K19C], 2.41; as for LTEAEGWHFFCFQGEATRELAGK [K19E], 2.68.
The figure for LTEAEGWHFFCFQGEATRDLAGK [K19D] is 2.76.
The figure for LTEAEGWHFFCFQGEATRKLAGC [K23C] is 2.15; for LTEAEGWHFFCFQGEATRKLAGV [K23V] it is 1.49.
In the case of LTEAEGWHFFCFQGEATRKLAGD [K23D], the protein stability index worked out at 2.06.
For the variant LTEAEGWHFFCFQGEATRKLAGL [K23L], the protein stability index turned out to be 1.86.
For LTEAEGWHFFCFQGEATRKLAGH [K23H], the protein stability index turned out to be 1.49.
The figure for LTEAEGWHFFCFQGEATRKLAGR [K23R] is 1.51; for LTEAEGWHFFCFQGEATRKLAGQ [K23Q] it is 2.81.
Take LTEAEGWHFFCFQGEATRKLAGP [K23P]: the protein stability index was found to be 2.41.
As for LTEAEGWHFFCFQGEATRKLAGI [K23I], the protein stability index is 2.17.
The figure for LTEAEGWHFFCFQGEATRKLAGN [K23N] is 2.85.
In the case of LTEAEGWHFFCFQGEATRKLAGT [K23T], the protein stability index amounted to 2.33.
